# Data taken from the Immune Epitope Database (IEDB).
# pKd: −log10 of the molar value.
# Columns and labels:
# [1] = target: HLA-B*54:01; experiment: IEDB peptide-MHC binding, purified MHC/competitive/radioactivity; filed as Kd, often an IC50 or EC50 that approximates it; ≥ and ≤ were set here for values at or beyond the usual limits of such assays
# [2] = target: HLA-B*35:01; experiment: as above
# [3] = target: HLA-B*53:01; experiment: as above
# [4] = target: HLA-B*07:02; experiment: as above
# [5] = target: HLA-B*51:01; experiment: as above
# [6] = target: HLA-B*44:03; experiment: as above
# [7] = target: HLA-B*44:02; experiment: as above
# [8] = target: HLA-A*02:06; experiment: as above
# [9] = target: HLA-A*68:02; experiment: as above
# [10] = target: HLA-A*02:01; experiment: as above
# [11] = target: HLA-B*40:01; experiment: as above
# [12] = target: HLA-A*03:01; experiment: as above
# [13] = target: HLA-B*18:01; experiment: as above
# [14] = target: HLA-A*02:02; experiment: as above
# [15] = target: HLA-A*33:01; experiment: as above
# [16] = target: HLA-B*08:01; experiment: as above; conditions: source organism: Hepatitis C virus (isolate 1)
# [17] = target: HLA-A*02:03; experiment: as above
# [18] = target: HLA-A*31:01; experiment: as above
# [19] = target: HLA-B*40:02; experiment: as above
# [20] = target: HLA-A*11:01; experiment: as above
# [21] = target: HLA-A*68:01; experiment: as above
# [22] = target: HLA-B*45:01; experiment: as above
# [23] = target: HLA-A*69:01; experiment: IEDB peptide-MHC binding, purified MHC/direct/fluorescence; filed as Kd, often an IC50 or EC50 that approximates it; ≥ and ≤ were set here for values at or beyond the usual limits of such assays; conditions: source organism: SARS-CoV1
# [24] = target: HLA-A*02:01; experiment: as above; conditions: source organism: SARS-CoV1
# [25] = target: HLA-B*07:02; experiment: as above; conditions: source organism: SARS-CoV1
# [26] = source organism: Vaccinia virus WR
# [27] = source organism: Hepatitis C virus (isolate 1)
# [28] = source organism: Mammarenavirus guanaritoense
# [29] = source organism: SARS coronavirus Tor2
# [30] = source organism: Triticum aestivum
# [31] = source organism: Mammarenavirus choriomeningitidis
sequence,measurement,setting,value
FPSTQRDYY,pKd,[1]; [26],5.40
same,pKd,[2]; [26],8.97
same,pKd,[3]; [26],8.94
same,pKd,[4]; [26],≤ 4.11
same,pKd,[5]; [26],≤ 4.11
APGSPTNLEF,pKd,[1]; [26],≤ 4.40
same,pKd,[2]; [26],6.07
same,pKd,[3]; [26],6.25
same,pKd,[4]; [26],7.27
same,pKd,[5]; [26],≤ 4.16
ATDALMTGY,pKd,[6]; [27],≤ 4.11
same,pKd,[7]; [27],≤ 4.11
same,pKd,[8]; [27],5.25
same,pKd,[9]; [27],≤ 4.16
same,pKd,[10]; [27],5.84
same,pKd,[11]; [27],≤ 4.12
same,pKd,[12]; [27],5.48
same,pKd,[13]; [27],≤ 4.11
same,pKd,[14]; [27],5.80
same,pKd,[15]; [27],≤ 4.11
same,pKd,[1]; [27],≤ 4.20
same,pKd,[16],≤ 4.19
same,pKd,[17]; [27],5.23
same,pKd,[18]; [27],≤ 4.14
same,pKd,[2]; [27],≤ 4.44
same,pKd,[19]; [27],≤ 4.11
same,pKd,[20]; [27],7.71
same,pKd,[3]; [27],≤ 4.11
same,pKd,[4]; [27],≤ 4.48
same,pKd,[21]; [27],≤ 4.11
same,pKd,[5]; [27],≤ 4.11
WPNNCGWKIY,pKd,[1]; [26],5.94
same,pKd,[2]; [26],6.23
same,pKd,[3]; [26],5.25
same,pKd,[4]; [26],≤ 4.64
same,pKd,[5]; [26],≤ 4.16
TPNYMKLLVY,pKd,[1]; [26],4.84
same,pKd,[2]; [26],7.32
same,pKd,[3]; [26],6.02
same,pKd,[4]; [26],≤ 4.32
same,pKd,[5]; [26],≤ 4.54
LPNTLVFQA,pKd,[1]; [28],8.09
same,pKd,[2]; [28],7.08
same,pKd,[3]; [28],5.99
same,pKd,[4]; [28],≤ 4.42
same,pKd,[5]; [28],5.36
ISIIVLFQR,pKd,[8]; [26],5.04
same,pKd,[9]; [26],5.05
same,pKd,[10]; [26],5.62
same,pKd,[12]; [26],6.16
same,pKd,[14]; [26],5.17
same,pKd,[15]; [26],6.60
same,pKd,[1]; [26],5.11
same,pKd,[17]; [26],5.04
same,pKd,[18]; [26],8.95
same,pKd,[2]; [26],≤ 4.36
same,pKd,[20]; [26],6.03
same,pKd,[3]; [26],≤ 4.67
same,pKd,[4]; [26],5.65
same,pKd,[21]; [26],8.49
same,pKd,[5]; [26],≤ 4.68
FPGLYGASI,pKd,[1]; [26],7.74
same,pKd,[2]; [26],6.30
same,pKd,[3]; [26],8.04
same,pKd,[4]; [26],7.09
same,pKd,[5]; [26],6.86
EPISILDRI,pKd,[1]; [26],6.09
same,pKd,[2]; [26],5.32
same,pKd,[3]; [26],6.71
same,pKd,[4]; [26],≤ 4.54
same,pKd,[5]; [26],7.43
IPYLRNYMVI,pKd,[8]; [26],≤ 4.16
same,pKd,[9]; [26],4.81
same,pKd,[10]; [26],≤ 4.16
same,pKd,[12]; [26],6.80
same,pKd,[14]; [26],≤ 4.15
same,pKd,[15]; [26],4.81
same,pKd,[1]; [26],6.08
same,pKd,[17]; [26],≤ 4.15
same,pKd,[18]; [26],≤ 4.43
same,pKd,[2]; [26],≤ 4.36
same,pKd,[20]; [26],5.99
same,pKd,[3]; [26],6.05
same,pKd,[4]; [26],6.49
same,pKd,[21]; [26],≤ 4.67
same,pKd,[5]; [26],≤ 4.60
KPNTWCLRCL,pKd,[1]; [29],≤ 4.51
same,pKd,[2]; [29],≤ 4.16
same,pKd,[3]; [29],5.61
same,pKd,[4]; [29],6.47
same,pKd,[5]; [29],≤ 4.16
IPKFKVTGSY,pKd,[1]; [26],≤ 4.24
same,pKd,[2]; [26],5.91
same,pKd,[3]; [26],≤ 4.16
same,pKd,[4]; [26],5.18
same,pKd,[5]; [26],≤ 4.16
KQYIVATLMK,pKd,[8]; [26],4.94
same,pKd,[9]; [26],≤ 4.31
same,pKd,[10]; [26],4.95
same,pKd,[12]; [26],8.25
same,pKd,[14]; [26],4.97
same,pKd,[15]; [26],5.94
same,pKd,[1]; [26],4.86
same,pKd,[17]; [26],5.01
same,pKd,[18]; [26],8.08
same,pKd,[2]; [26],4.73
same,pKd,[20]; [26],8.42
same,pKd,[3]; [26],≤ 4.16
same,pKd,[4]; [26],≤ 4.16
same,pKd,[21]; [26],5.87
same,pKd,[5]; [26],≤ 4.46
QPYPQPQPQY,pKd,[1]; [30],≤ 4.16
same,pKd,[2]; [30],7.32
same,pKd,[3]; [30],5.79
same,pKd,[4]; [30],≤ 4.16
same,pKd,[5]; [30],4.98
IPPYCTIAPV,pKd,[1]; [30],7.04
same,pKd,[2]; [30],≤ 4.52
same,pKd,[3]; [30],≤ 4.16
same,pKd,[4]; [30],6.03
same,pKd,[5]; [30],≤ 4.52
APHGVVFLHV,pKd,[1]; [29],6.54
same,pKd,[2]; [29],5.36
same,pKd,[3]; [29],6.13
same,pKd,[4]; [29],6.60
same,pKd,[5]; [29],5.11
AEVQIDRLI,pKd,[6]; [29],7.03
same,pKd,[7]; [29],7.05
same,pKd,[22]; [29],6.01
same,pKd,[11]; [29],4.96
same,pKd,[13]; [29],≤ 4.11
same,pKd,[19]; [29],7.03
SEYDYVIFT,pKd,[6]; [29],7.60
same,pKd,[7]; [29],6.90
same,pKd,[22]; [29],7.94
same,pKd,[11]; [29],6.00
same,pKd,[13]; [29],5.49
same,pKd,[19]; [29],7.47
MPASWVMRI,pKd,[1]; [29],7.49
same,pKd,[2]; [29],6.69
same,pKd,[3]; [29],8.91
same,pKd,[5]; [29],7.17
same,pKd,[23],7.77
same,pKd,[24],5.09
same,pKd,[25],6.29
LEDFKPRSQM,pKd,[6]; [29],6.00
same,pKd,[7]; [29],6.21
same,pKd,[22]; [29],4.75
same,pKd,[11]; [29],5.82
same,pKd,[13]; [29],≤ 4.42
same,pKd,[19]; [29],7.66
REGLLNYSM,pKd,[6]; [31],5.91
same,pKd,[7]; [31],5.93
same,pKd,[22]; [31],5.61
same,pKd,[11]; [31],5.92
same,pKd,[13]; [31],6.83
same,pKd,[19]; [31],7.75
KPPISFPLCA,pKd,[1]; [29],5.41
same,pKd,[2]; [29],≤ 4.37
same,pKd,[3]; [29],≤ 4.50
same,pKd,[4]; [29],4.76
same,pKd,[5]; [29],5.02
YPTNDIPSLF,pKd,[1]; [26],6.33
same,pKd,[2]; [26],8.06
same,pKd,[3]; [26],8.12
same,pKd,[4]; [26],5.71
same,pKd,[5]; [26],5.37
